Assay results: publication PMC12598616, “Design and optimization of caspase-1-responsive fluorescent probes for pyroptosis imaging and anti-pyroptosis drug screening” (Chemical Science, 2025)

Tested on: THP-1 cells
Assay: Cytotoxicity assay (CCK-8)
Format: cell-based
Details: CCK-8, 0–50 μM, 12 h, 37 °C
Procedure: Cytotoxicity assay (CCK-8)
The cytotoxicity of FPy1 and YPy1 to THP-1 was evaluated by cell counting kit-8 (CCK-8). Briefly, the THP-1 cells were seeded in 96-well plates (5000 cells/well) and cultured at 37 °C for 24 hours. Various concentrations of FPy1 or YPy1 (0, 2.5, 5, 10, 20, 30, 40, 50 μM) in RPMI 1640 medium were added, and the cells were kept incubation for 12 hours. Then, the cells were washed with PBS and incubated in the 100 μL fresh medium with 10 μL CCK8 dye for an additional 2 hours. The absorbance was measured at 450 nm using a Tecan Infinite M1000 Multi-function microplate reader, and cell viability was calculated using the formula:
Cell viability (%) = [(OD test-ODblank)/(ODcontrol-ODblank)] ×100%
Intracellular imaging with FPy1 in THP-1 cells
THP-1 cells were seeded in dishes and cultured overnight. […] The fluorescence imaging was performed under the excitation at 514 nm with signal collection in the range […]
for 4 hours, the cells were further treated with Nig (10 μM) for 2 hours. […] The distribution of FPy1 was analyzed by collecting organelle-specific dye fluorescence at 495-525 nm with 488 nm excitation, while simultaneously detecting FPy1 fluorescence at 530-610 nm with 514 nm excitation. […]
Nucleus pulposus cells were isolated from discs and resuspended in 1mL DMEM/F12 medium containing 10 μM ITS-A. A total of […] were counted and transferred into centrifuge tubes. […]

Substance	cytotoxicity towards THP-1 cells
–YVADG– [YPy1, caspase-1-responsive FRET probe with recognition peptide –YVADG–; RhoB donor, hNR quencher]	low cytotoxicity
–FLTDG– [FPy1, RhoB donor, hNR quencher]	low cytotoxicity
